Publication PMC11198818, “Positive charges promote the recognition of proteins by the chaperone SlyD from Escherichia coli” (PLOS ONE, 2024)
Residue numbers refer to the chain shown, from its start.

Experiments:
Assay in all cases: ITC; VP-ITC (MicroCal), 30°C, 10 mM potassium phosphate buffer pH 7.6 or 7.8; SlyD or its variant 30 uM in the calorimetric cell, HiPIP precursor (RR-HiPIP) injected: 100 uM, 2x 22 injections of 10 uL (Fig 4); 200 uM, 23 injections of 10 uL (Fig 3)
Settings in all cases: both partners purified
[1] = target: T1, SlyD from Escherichia coli, C-terminally hexahistidine-tagged, wild type (E. coli, UniProt P0A9K9 1-196)
T1 construct: FKBP-type peptidyl-prolyl cis-trans isomerase SlyD, E. coli; the tag is fused to the C-terminal domain; also called WT; wt; not shown: His6, C-terminal, kept
T1 sequence: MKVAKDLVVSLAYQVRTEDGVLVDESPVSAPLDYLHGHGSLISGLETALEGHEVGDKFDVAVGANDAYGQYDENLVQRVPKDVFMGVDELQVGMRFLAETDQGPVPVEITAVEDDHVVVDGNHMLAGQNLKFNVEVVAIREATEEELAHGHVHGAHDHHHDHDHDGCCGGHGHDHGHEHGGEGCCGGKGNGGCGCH

[2] = target: T2, SlyD E108A, C-terminally hexahistidine-tagged (E. coli, UniProt P0A9K9 1-196, E108A)
T2 construct: FKBP-type peptidyl-prolyl cis-trans isomerase SlyD, E. coli; the tag is fused to the C-terminal domain; not shown: His6, C-terminal, kept
T2 sequence: T1 sequence with E108A

[3] = target: T3, SlyD E73A, C-terminally hexahistidine-tagged (E. coli, UniProt P0A9K9 1-196, E73A)
T3 construct: FKBP-type peptidyl-prolyl cis-trans isomerase SlyD, E. coli; the tag is fused to the C-terminal domain; not shown: His6, C-terminal, kept
T3 sequence: T1 sequence with E73A

[4] = target: T4, SlyD D101A, C-terminally hexahistidine-tagged (E. coli, UniProt P0A9K9 1-196, D101A)
T4 construct: FKBP-type peptidyl-prolyl cis-trans isomerase SlyD, E. coli; the tag is fused to the C-terminal domain; not shown: His6, C-terminal, kept
T4 sequence: T1 sequence with D101A

[5] = target: T5, SlyD F84A, C-terminally hexahistidine-tagged (E. coli, UniProt P0A9K9 1-196, F84A)
T5 construct: FKBP-type peptidyl-prolyl cis-trans isomerase SlyD, E. coli; the tag is fused to the C-terminal domain; not shown: His6, C-terminal, kept
T5 sequence: T1 sequence with F84A

[6] = target: T6, SlyD F84N, C-terminally hexahistidine-tagged (E. coli, UniProt P0A9K9 1-196, F84N)
T6 construct: FKBP-type peptidyl-prolyl cis-trans isomerase SlyD, E. coli; the tag is fused to the C-terminal domain; not shown: His6, C-terminal, kept
T6 sequence: T1 sequence with F84N

B1: HiPIP precursor (RR-HiPIP) from Allochromatium vinosum (natural protein)
chain: MSDKPISKSRRDAVKVMLGTAAAIPMINLVGFGTARASAPANAVAADDATAIALKYNQDATKSERVAAARPGLPPEEQHCANCQFMQADAAGATDEWKGCQLFPGKLINVNGWCASWTLKAG
modifications: HiPIP precursor; fully folded, [4Fe-4S] cluster presumed; signal peptide retained
With B1 the “stoichiometry N” value [1] was 0.71 ± 0.002, the “stoichiometry N” value [2] was 0.569 ± 0.015 and the Kd [3] was 0.32 ± 0.02 µM. The “stoichiometry N” value [3] was 0.616 ± 0.003, the “stoichiometry N” value [4] was 0.604 ± 0.012 and the “stoichiometry N” value [5] was 0.766 ± 0.011. The Kd [6] was 6.62 ± 0.2 µM and the “stoichiometry N” value [6] was 0.532 ± 0.004.
